Data from patent US20240391950A1, “PEPTIDE CROSSLINKING AGENT AND CROSSLINKED PEPTIDE WHICH IS CROSSLINKED USING SAID CROSSLINKING AGENT” (Kagoshima University, priority 2020, published 2024).
Blank lines part the entries; values can stand above or below the molecule they belong to. Starred links: 1 amine or outer side, 2 acyl side, 3 side chain; linkers in the order of their positions; H or OH if unused. Positions of bridges follow the written chain, without caps; N, C: chain ends. Residues, ends and D or L forms follow the SMILES beside them. CH2COCH2 = O=C(C[*:1])C[*:2]

Columns and labels:
human IgG1 = human IgG1 (Homo sapiens, UniProt P01857); assay: SPR (BIAcore T200) measurement of binding affinity of crosslinked cyclic peptide to immobilized IgG
Experimental: The affinity analysis was performed by the following method. First, a CM5 sensor chip was installed on BIAcoreT200 (GE healthcare), and 0.4 M 1-ethyl-3-(3-dimethylaminopropyl)carbodiimide (EDC) and a 0.1 M sulfo-N-hydroxysuccinimide (sulfo-NHS) solution mixed in equivalent amounts were injected to the sensor chip at a flow rate of […], to thereby activate the sensor chip. Thereafter, IgG was immobilized onto the sensor chip under a condition of a pH of 5.5 (10 mM Na acetate). An HBS-EP buffer (10 mM HEPES, 150 mM NaCl, 0.005% Tween 20, 3 mM EDTA, pH 7.4) was used in measurement, and 15.625, 31.2, 62.5, 125, 250, and 500 nM of peptides were each injected at a flow rate of […] for 180 seconds, to thereby monitor binding reaction. When dissociation reaction was measured, only the buffer was injected for 600 seconds. The interaction parameter was analyzed with BIAevaluation T100 software.
IgG-binding peptide derivatives compared and evaluated are illustrated in FIG. 1.

human serum-derived IgG = assay: Dynamic binding capacity (DBC) measurement and alkali resistance evaluation of peptide-immobilized column; conditions: initial value; 1 mg peptide on 1-mL column, 1 mL/min
Experimental: Five mL of 1 mM hydrochloric acid was sent to an NHS-activated prepacked column having a volume of 1 mL, and an isopropanol solution in the column was removed. Next, a 10.0 mg/mL peptide solution (dissolved in 100 μL of DMSO) was diluted with a coupling solution (20 mM carbonate buffer, 50 mM sodium chloride, pH 8.3) by 10-fold, 1 mL of the dilution liquid was sent, and immobilization was performed at room temperature for 4 hours. Thereafter, unreacted NHS was blocked by 5 mL of 1 M Tris (pH 8.0) at room temperature for 1 hour. Thereafter, washing with 5 mL of an aqueous 0.1 N NaOH solution was made. Finally, 10 mL of a PBS solution (20 mM phosphate buffer, 150 mM sodium chloride, pH 7.4) was sent, and used in chromatography evaluation.
A column where the amount of immobilization of a peptide was 1 mg was produced by the same method as described above. The column produced was equilibrated with PBS, and 1 mg/mL human serum-derived IgG (manufactured by Sigma-Aldrich Co. LLC) dissolved in PBS was sent at a flow rate of 1 mL/min (retention time 1 min). DBC was indicated as one determined from the amount of a protein added at the time of point where 10% of the absorbance at 280 nm of the sample added was leaked.
Next, 5 mL of an aqueous 0.1 N sodium hydroxide solution was sent to the 1-mL column where 1 mg of the peptide was immobilized. Thereafter, washing with PBS was performed. This cycle was repeated 30 times for the 1,1-dichloroacetone-crosslinked cyclic peptide, and was repeated 10 times for the 1,1-dichloropinacolin-crosslinked cyclic peptide. DBC measurement was performed at a flow rate of 1 mL/min at the 1st to 5th and 10th times of the cycles, and further performed at the 20th and 30th times of the cycles with respect to the 1,1-dichloroacetone-crosslinked cyclic peptide, and thus alkali resistance was evaluated. The variation in DBC was determined based on the measurement results under the assumption that DBC immediately after column production was 100% according to Table 2.
Five mL of a 0.1 M sodium hydroxide solution was sent to the produced 1-mL column where the amount of immobilization of a peptide was 1 mg, and thereafter washing with 5 mL of PBS was performed. These operations were defined as one cycle and treatment of washing with aqueous NaOH solution/washing with PBS was performed 1 to 30 times, and thereafter DBC measurement was performed at a flow rate of 1 mL/min at the intended number of times (1, 2, 3, 4, 5, 10, 20, 30 times).

IgG = conditions: Patent Literature 2; read-out: Kd (affinity with IgG); cited from earlier work
human IgG1 (human) [1] = assay: SPR, BIAcore T200, IgG immobilised on CM5 chip
[2] = biological target: human serum-derived IgG (manufactured by Sigma-Aldrich Co. LLC); assay: peptide-immobilised column, human serum IgG, 10% breakthrough
human IgG1 (human) [3] = assay: SPR, BIAcore T200, IgG immobilised on CM5 chip, peptide as analyte
[4] = biological target: human serum-derived IgG (manufactured by Sigma-Aldrich Co. LLC); assay: 1 mL column with 1 mg peptide immobilised, human serum IgG; 1 wash with 0.1 N NaOH
[5] = biological target: human serum-derived IgG (manufactured by Sigma-Aldrich Co. LLC); assay: 1 mL column with 1 mg peptide immobilised, human serum IgG; 2 washes with 0.1 N NaOH
[6] = biological target: human serum-derived IgG (manufactured by Sigma-Aldrich Co. LLC); assay: 1 mL column with 1 mg peptide immobilised, human serum IgG; 5 washes with 0.1 N NaOH
[7] = biological target: human serum-derived IgG (manufactured by Sigma-Aldrich Co. LLC); assay: 1 mL column with 1 mg peptide immobilised, human serum IgG; 10 washes with 0.1 N NaOH
[8] = biological target: human serum-derived IgG (manufactured by Sigma-Aldrich Co. LLC); assay: 1 mL column with 1 mg peptide immobilised, human serum IgG, 10% breakthrough; 1 wash with 0.1 N NaOH
[9] = biological target: human serum-derived IgG (manufactured by Sigma-Aldrich Co. LLC); assay: 1 mL column with 1 mg peptide immobilised, human serum IgG 1 mg/mL at 1 mL/min; 1 wash with 0.1 N NaOH
[10] = biological target: human serum-derived IgG (manufactured by Sigma-Aldrich Co. LLC); assay: 1 mL column with 1 mg peptide immobilised, human serum IgG, 10% breakthrough; 2 washes with 0.1 N NaOH
[11] = biological target: human serum-derived IgG (manufactured by Sigma-Aldrich Co. LLC); assay: 1 mL column with 1 mg peptide immobilised, human serum IgG, 10% breakthrough; 5 washes with 0.1 N NaOH
[12] = biological target: human serum-derived IgG (manufactured by Sigma-Aldrich Co. LLC); assay: 1 mL column with 1 mg peptide immobilised, human serum IgG, 10% breakthrough; 10 washes with 0.1 N NaOH
[13] = biological target: human serum-derived IgG (manufactured by Sigma-Aldrich Co. LLC); assay: 1 mL column with 1 mg peptide immobilised, human serum IgG 1 mg/mL at 1 mL/min; 2 washes with 0.1 N NaOH
[14] = biological target: human serum-derived IgG (manufactured by Sigma-Aldrich Co. LLC); assay: 1 mL column with 1 mg peptide immobilised, human serum IgG 1 mg/mL at 1 mL/min; 5 washes with 0.1 N NaOH
[15] = biological target: human serum-derived IgG (manufactured by Sigma-Aldrich Co. LLC); assay: 1 mL column with 1 mg peptide immobilised, human serum IgG 1 mg/mL at 1 mL/min; 10 washes with 0.1 N NaOH

human IgG1, sequence (P01857 1-328 limits assumed): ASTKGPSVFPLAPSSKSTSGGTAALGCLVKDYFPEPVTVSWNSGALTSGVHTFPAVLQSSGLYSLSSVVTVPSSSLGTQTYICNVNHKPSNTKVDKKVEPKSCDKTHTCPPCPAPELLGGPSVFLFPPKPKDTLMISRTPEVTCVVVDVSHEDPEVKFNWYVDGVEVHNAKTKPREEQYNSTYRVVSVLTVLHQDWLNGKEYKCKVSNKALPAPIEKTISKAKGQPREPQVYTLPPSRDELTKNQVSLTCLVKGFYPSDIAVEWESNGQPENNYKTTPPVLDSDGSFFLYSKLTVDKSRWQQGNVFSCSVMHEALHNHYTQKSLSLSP

reduction of affinity as compared with the original peptide (human IgG1; Kd relative to original disulfide IgG-binding peptide): about 500 fold | kd (human IgG1; SPR, IgG immobilized on CM5 chip, HBS-EP pH 7.4): 0.005 | ka (human IgG1; SPR, IgG immobilized on CM5 chip, HBS-EP pH 7.4, in M-1 s-1 (unit assumed)): 1.00E+03 | initial value of DBC of peptide column (human serum-derived IgG): 2.3 mg/mL-column
Molecule: CC(C)C[C@@H]1NC(=O)[C@H](CCC(=O)O)NC(=O)CNC(=O)[C@H](CCCNC(=N)N)NC(=O)[C@H](Cc2c[nH]cn2)NC(=O)[C@H](Cc2ccc(O)cc2)NC(=O)[C@H](C)NC(=O)[C@@H](NC(=O)[C@H](CC(=O)O)NC(=O)[C@@H]2CCCN2C(=O)CNC(=O)[C@H](CO)NC(=O)CNC(=O)CNC(=O)[C@H](CO)NC(=O)CN)CSCC(=O)CSC[C@@H](C(=O)N[C@H](C(=O)N[C@@H](Cc2ccccc2)C(=O)N[C@@H](Cc2c[nH]cn2)C(=O)O)[C@@H](C)O)NC(=O)[C@H](Cc2c[nH]c3ccccc23)NC(=O)[C@H](C(C)C)NC1=O [IgG-BP-LongGS 1,3-dichloroacetone] (H-GSGGSGPDCAYHRGELVWCTFH-OH; linker 9-19 via CH2COCH2; N-terminus and C-terminus assumed)
Kd (IgG): 4900 nM

fold reduction of affinity against the original peptide (human IgG1 (human) [1]): 14 fold | DBC relative to the original IgG-binding peptide-immobilized column [2]: 96% | Kd (human IgG1 (human) [3]): 112 nM | Variation (%) in maximum binding capacity [4]: 100% | Variation (%) in maximum binding capacity [5]: 99.8% | Variation (%) in maximum binding capacity [6]: 89.8% | Variation (%) in maximum binding capacity [7]: 87.1% | Dynamic binding capacity [8]: 16.7 mg/mL | Variation (%) in dynamic binding capacity [8]: 100% | Maximum binding capacity [9]: 12.1 mg | Dynamic binding capacity [10]: 17.2 mg/mL | Variation (%) in dynamic binding capacity [10]: 103% | Dynamic binding capacity [11]: 16.2 mg/mL | Variation (%) in dynamic binding capacity [11]: 97.2% | Dynamic binding capacity [12]: 14.5 mg/mL | Variation (%) in dynamic binding capacity [12]: 86.6% | Maximum binding capacity [13]: 12.1 mg | Maximum binding capacity [14]: 10.9 mg | Maximum binding capacity [15]: 10.6 mg
B1: 1,1-dichloropinacolin-crosslinked cyclic peptide of IgG-BP-LongGS (peptide)
peptide: GSGGSGPDCAYHRGELVWCTFH
modifications: the thiol groups of the two Cys residues crosslinked with 1,1-dichloropinacolin in place of the disulfide bond; Fmoc removed
